# Assay results: the supplement of paper PMC12764529
# ± gives the half width of the 95% confidence interval.
# Tests used:
# [1] = folding stability dG unfold from trypsin proteolysis; higher = more stable
# Method in brief: (§1)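 Designed mini-proteins (under 80 residues, no cysteine) in a PA-tagged cDNA display construct were digested with trypsin and chymotrypsin. Each protease was used at 11 concentrations (threefold dilutions) plus a no-protease condition, followed by sequencing. K50 was inferred by Bayesian fitting of sequencing counts, and unfolding free energy was derived against a sequence-predicted unfolded-state K50 and a shared folded-state K50, per protease or combined. Only designs with AlphaFold2 dimer inter-PAE above 15 were kept.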
# [2] = folding stability dG unfold from chymotrypsin proteolysis; higher = more stable
# Method in brief: as §1
# [3] = folding stability dG unfold (combined trypsin and chymotrypsin); higher = more stable
# Method in brief: as §1
Sequence,folding stability dG unfold [1],folding stability dG unfold [2],folding stability dG unfold [3]
SAGGSAGGSAGGMNIKVLKEFEFETEDGVPVRYLLVDAGGEEGETVVIKETPTSIEIIPFSAGGSAGGSAGG [r7_960_TrMRF],0.856 ± 0.025 kcal/mol,0.511 ± 0.17 kcal/mol,0.694 ± 0.11 kcal/mol
SAGGSAGGSAGGMNPIVIKKTYPVKSGSFTVTLPEGVTPVSFEKDPNSDTITIEVLVEPSAGGSAGGSAGGS [r10_906_JUSTAS],0.63 ± 0.067 kcal/mol,-0.713 ± 0.37 kcal/mol,0.0999 ± 0.3 kcal/mol
SAGGSAGGSAGGMPGVTTTSTTTTTLPNGTVVTTTTTTVLLPTGTTVTVTVTTTTSATTSSAGGSAGGSAGG [r11_274_JUSTAS],2.77 ± 0.11 kcal/mol,2.61 ± 0.088 kcal/mol,2.68 ± 0.12 kcal/mol
SAGGSAGGSAGGMPIPIIVIPTPPNGNFTPEQIKEVAEKLNDPVVLTEESDNSRVILVGSAGGSAGGSAGGS [r10_642_TrMRF],0.928 ± 0.029 kcal/mol,-0.135 ± 0.08 kcal/mol,0.519 ± 0.16 kcal/mol
SAGGSAGGSAGGMPVLVNIELPIPGTNETLTLEVEAEGPGGEEVEKEAQETAEKVLEESSAGGSAGGSAGGS [r10_863_JUSTAS],1.58 ± 0.1 kcal/mol,1.79 ± 0.068 kcal/mol,1.72 ± 0.11 kcal/mol
SAGGSAGGSAGGMREIAREIWEEYNNPVTIRIRNPNGKHEPFRFPDDPEDIPGWDIDDITSAGGSAGGSAGG [r7_998_TrROS],-0.831 ± 0.3 kcal/mol,0.79 ± 0.098 kcal/mol,0.463 ± 0.082 kcal/mol
SAGGSAGGSAGGMREVIRRPEASGEVTVEPLPEDERRPVDFGSDGVVLWREGDEVVVEPSAGGSAGGSAGGS [r10_817_JUSTAS],0.00105 ± 0.087 kcal/mol,0.72 ± 0.043 kcal/mol,0.562 ± 0.08 kcal/mol
SAGGSAGGSAGGMRKYLVTLKPPNGPVTRYILPSEEEIKEFVAPLNAEYEVTPLSEDVPPSAGGSAGGSAGG [r7_456_JUSTAS],0.0557 ± 0.1 kcal/mol,0.72 ± 0.072 kcal/mol,0.515 ± 0.088 kcal/mol
SAGGSAGGSAGGMSFPVSSVEYRKDPNSDTPLVFITLPDGTVIIERLDTGTSSVVPVSQLSAGGSAGGSAGG [r11_922_JUSTAS],1.12 ± 0.037 kcal/mol,1.3 ± 0.15 kcal/mol,1.21 ± 0.067 kcal/mol
SAGGSAGGSAGGMSITFTAPDGSKITATIDPDGNVLVEVHLGDKPYYVKGPVETLLKNAPSAGGSAGGSAGG [r7_178_TrMRF],0.325 ± 0.027 kcal/mol,0.904 ± 0.1 kcal/mol,0.719 ± 0.07 kcal/mol
SAGGSAGGSAGGMSITISVPEKTATIEIPGLGKTITIPPGETITVPIPNVPPFKITTEPPSAGGSAGGSAGG [r11_939_JUSTAS],0.76 ± 0.059 kcal/mol,0.854 ± 0.044 kcal/mol,0.732 ± 0.086 kcal/mol
SAGGSAGGSAGGMTIVLNIPKEELTEEEIKKLKESLPSDNPVKIIVKPKPPRKFYPKSTISAGGSAGGSAGG [r7_979_JUSTAS],0.605 ± 0.024 kcal/mol,1.12 ± 0.048 kcal/mol,0.925 ± 0.065 kcal/mol
SAGGSAGGSAGGMTLEELKNLKPGEEVEIEIEVYDKNGKKVSKYRIRIYNDKIEIEKLPSAGGSAGGSAGGS [r10_394_TrROS_Hall],2.4 ± 0.057 kcal/mol,2.991 ± 0.026 kcal/mol,2.71 ± 0.092 kcal/mol
SAGGSAGGSAGGMTLEIEINGLKVRIEFDEETKELRIEVEPAPPPVVVYEKEKLEEEEESAGGSAGGSAGGS [r10_724_TrROS_Hall],1.56 ± 0.078 kcal/mol,1.52 ± 0.05 kcal/mol,1.46 ± 0.18 kcal/mol
SAGGSAGGSAGGMTPEEKIEALIKATPPLTVKTSGPGVSYEVEDLEKLKKLNVTISSVLGSAGGSAGGSAGG [r7_504_JUSTAS],-1.3 ± 0.67 kcal/mol,-0.683 ± 0.24 kcal/mol,-0.637 ± 0.22 kcal/mol
SAGGSAGGSAGGMTQEVTLEPLPDGTVKLLSVEAPESTVTVPVKLPGGGEEVRTLPPEALSAGGSAGGSAGG [r7_829_JUSTAS],-0.0201 ± 0.045 kcal/mol,-0.255 ± 0.15 kcal/mol,-0.131 ± 0.16 kcal/mol
SAGGSAGGSAGGMTVERREVFPLGESLVITETREVLDPSSDVPVTVETRVEVLPPEVPPSAGGSAGGSAGGS [r10_599_JUSTAS],-1.32 ± 0.74 kcal/mol,0.25 ± 0.12 kcal/mol,0.033 ± 0.18 kcal/mol
SAGGSAGGSAGGMTVLETEVTTLPNGVVKTTTLYKDPSTGALHTVTEEVYVPLGETALLSAGGSAGGSAGGS [r10_72_JUSTAS],0.716 ± 0.022 kcal/mol,0.15 ± 0.15 kcal/mol,0.523 ± 0.11 kcal/mol
SAGGSAGGSAGGMTYVTVTLKEGDTEVTLTFPLEKLPEVVPEPGIEILEVETSPLDPELLSAGGSAGGSAGG [r17_204_JUSTAS],1.34 ± 0.081 kcal/mol,0.737 ± 0.14 kcal/mol,1.05 ± 0.12 kcal/mol
SAGGSAGGSAGGMVETGTPSSGSSSPSYVLTTTTLTLLDGTFVPTTTTTTFSDPAEAAAASAGGSAGGSAGG [r7_896_JUSTAS],1.52 ± 0.082 kcal/mol,0.411 ± 0.077 kcal/mol,1.14 ± 0.086 kcal/mol
SAGGSAGGSAGGMVIERPLPNGEPLLVELGRPASAPARVTVPNPGRPLGTITSLEELEERSAGGSAGGSAGG [r7_72_TrMRF],-0.207 ± 0.11 kcal/mol,0.565 ± 0.03 kcal/mol,0.332 ± 0.13 kcal/mol

Sequence,folding stability dG unfold [1],folding stability dG unfold [2],folding stability dG unfold [3]
SAGGSAGGSAGGMVTATVTEYQPGEGLLTVKPPDGSTITIAVPPSVSYEELKNTTIDLSLSAGGSAGGSAGG [r7_296_JUSTAS],1.09 ± 0.036 kcal/mol,0.021 ± 0.072 kcal/mol,0.714 ± 0.066 kcal/mol
SAGGSAGGSAGGMVTTKTVVTFDPSGYITTTETIKVVGTDELLTKTSVTPVEPVPPLLSSAGGSAGGSAGGS [r10_928_JUSTAS],-0.179 ± 0.2 kcal/mol,1.18 ± 0.026 kcal/mol,0.828 ± 0.1 kcal/mol
SAGGSAGGSAGGMVTVETAPAPEGTERVIRVTFLEVNPEDGTIVRPATLTFVVPPGDPLSAGGSAGGSAGGS [r10_86_TrMRF],0.397 ± 0.066 kcal/mol,0.876 ± 0.083 kcal/mol,0.686 ± 0.062 kcal/mol
SAGGSAGGSAGGMVVEVVELPDGQLVVRAGPVGYAVVFNGEEVTLFELPPDAEVELLPFSAGGSAGGSAGGS [r10_637_TrMRF],1.1 ± 0.032 kcal/mol,1.55 ± 0.089 kcal/mol,1.36 ± 0.098 kcal/mol
SAGGSAGGSAGGMVVLKTPERFVVVESVEVYVPVRDPDGTPVRWSPVRTEVRVTVIPPLASAGGSAGGSAGG [r7_3_JUSTAS],1.34 ± 0.038 kcal/mol,2.13 ± 0.057 kcal/mol,1.86 ± 0.058 kcal/mol
SAGGSAGGSAGGMVYFPESLKEEVIEELKKKGYKIKSIEKIEGGYIRITTPKNPIEIKLLSAGGSAGGSAGG [r17_379_JUSTAS],0.443 ± 0.084 kcal/mol,0.786 ± 0.25 kcal/mol,0.8 ± 0.17 kcal/mol
SAGGSAGGSAGGMWYIRITYDNGREIWIPIGDPITIKHKDGKPVQIKEVEVYPLPPGQISAGGSAGGSAGGS [r10_20_TrROS],2.04 ± 0.064 kcal/mol,2.72 ± 0.032 kcal/mol,2.58 ± 0.11 kcal/mol
SAGGSAGGSAGGMYYAIITNKNGKKKIIKFKSLEEMEEAAKKNNIKIEIIPKEELEKLLSAGGSAGGSAGGS [r10_66_TrROS_Hall],3.56 ± 0.11 kcal/mol,3.64 ± 0.043 kcal/mol,3.65 ± 0.069 kcal/mol
SAGGSAGGSAGGNPPDWKPVGEEEFPIPNPNGMQIKISVWTIRAPDDGKSASFIDIEMYPSAGGSAGGSAGG [r7_546_TrROS],1.19 ± 0.07 kcal/mol,1.87 ± 0.072 kcal/mol,1.58 ± 0.32 kcal/mol
SAGGSAGGSAGGNWVTIWIPFKMTHYRPDPDGKMYPHKHEMPRPITIPPGQATEDALDKISAGGSAGGSAGG [r7_777_TrROS],0.165 ± 0.12 kcal/mol,0.762 ± 0.14 kcal/mol,0.595 ± 0.11 kcal/mol
SAGGSAGGSAGGNYVVRIEHNGQPIMEQPFPGSLEDAKDYVKEIAQFFPPDKVKIEVYKFSAGGSAGGSAGG [r7_81_TrROS],-0.0528 ± 0.057 kcal/mol,0.458 ± 0.19 kcal/mol,0.292 ± 0.095 kcal/mol
SAGGSAGGSAGGPDFKIEPVEKKGNYELYKAYIPETGEEFFLVYYPNPKEVKIYPSDYLSAGGSAGGSAGGS [r10_172_TrMRF],0.754 ± 0.038 kcal/mol,1.52 ± 0.034 kcal/mol,1.29 ± 0.049 kcal/mol
SAGGSAGGSAGGPEVEVFYERGPDGPLKVVVVVRNPDTPEVTVLVADLEPEKALEFLEALSAGGSAGGSAGG [r7_105_TrMRF],2 ± 0.14 kcal/mol,1.86 ± 0.084 kcal/mol,1.89 ± 0.18 kcal/mol
SAGGSAGGSAGGPEVTITLPPPEKVKVEIVEIEVEGGKVRIRVRNENGEELTFTVPLEDLSAGGSAGGSAGG [r7_829_TrROS_Hall],0.667 ± 0.18 kcal/mol,1.59 ± 0.35 kcal/mol,1.51 ± 0.26 kcal/mol
SAGGSAGGSAGGPFPFKIDSVEWETTDNKRYYEIKLEFPNGNPVTIHMPPNNPDDVKDAISAGGSAGGSAGG [r7_365_TrROS],0.232 ± 0.071 kcal/mol,-0.00838 ± 0.25 kcal/mol,0.144 ± 0.2 kcal/mol
SAGGSAGGSAGGPGWRTIEFWIPVDDFLDEIKLPPGITPIRIIKPNPNGYVRIMIIYPYSAGGSAGGSAGGS [r10_352_TrROS],2.53 ± 0.1 kcal/mol,3.05 ± 0.059 kcal/mol,2.89 ± 0.14 kcal/mol
SAGGSAGGSAGGPITSIDTSGPVITVTATTPGGSVTMDVPPDLTLEEVEALLKANPELLNSAGGSAGGSAGG [r7_373_JUSTAS],1.41 ± 0.072 kcal/mol,-0.265 ± 0.12 kcal/mol,0.788 ± 0.087 kcal/mol
SAGGSAGGSAGGPKGYFRIRIEIPNGQKREIWFPPDDAEEWVKSLGIPEENVKITKIEPYSAGGSAGGSAGG [r7_211_TrROS],0.506 ± 0.15 kcal/mol,0.874 ± 0.27 kcal/mol,0.868 ± 0.18 kcal/mol
SAGGSAGGSAGGPKIEVNEDGTVTITLEVDGKLVTKTVKVELEAPPVETVEFVKEGEEVSAGGSAGGSAGGS [r10_240_TrROS_Hall],0.822 ± 0.043 kcal/mol,1.21 ± 0.046 kcal/mol,1.02 ± 0.077 kcal/mol
SAGGSAGGSAGGPKVEVTVKGKPATVEWFPEEGKARVTVPDGRVYVLDLNGDKLEIKPLSAGGSAGGSAGGS [r10_724_TrMRF],0.258 ± 0.041 kcal/mol,0.588 ± 0.13 kcal/mol,0.512 ± 0.1 kcal/mol
SAGGSAGGSAGGPKVIEITNKDGSTFRLVEVDGELYLYNEKTGKVVKLPPGAKITIKKPSAGGSAGGSAGGS [r10_637_TrROS_Hall],1.39 ± 0.033 kcal/mol,2.65 ± 0.031 kcal/mol,2.34 ± 0.059 kcal/mol
